The values that follow come from the supplement of paper PMC9112550, “Optimization of the antimicrobial peptide Bac7 by deep mutational scanning” (BMC Biology, 2022).

For this data set, the system named is Escherichia coli TOP10. Briefly: shrunken log2 fold change of peptide-encoding DNA abundance (4.5 h post-induction vs induction); higher = less antimicrobial activity (less host growth inhibition). Particulars: time post-induction: 4.5 h; library: site-saturation at positions 5, 18, 19, 20.
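Further: peptides expressed intracellularly from a pBAD plasmid library in pooled LB shake-flask culture, induced with 0.3% L-arabinose, DNA abundance read by NGS, three biological replicates, DESeq2 with apeglm shrinkage.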

As for RRIRFRPPRLPRPRPRPCVPPRP, the “shrunken log2 fold change” value is -0.835.

As for RRIRMRPPRLPRPRPRPKCHPRP, the “shrunken log2 fold change” value was 0.335.

In the case of RRIRMRPPRLPRPRPRPQGQPRP, the “shrunken log2 fold change” value turned out to be 0.253.

With RRIRLRPPRLPRPRPRPPDHPRP, the “shrunken log2 fold change” value was 0.0205.

RRIRERPPRLPRPRPRPKNYPRP: the “shrunken log2 fold change” value was -0.463.

Regarding RRIRHRPPRLPRPRPRPYVWPRP, the “shrunken log2 fold change” value was 0.0405.

As for RRIRCRPPRLPRPRPRPCTNPRP, the “shrunken log2 fold change” value is -0.134.

For RRIRYRPPRLPRPRPRPFAEPRP, the “shrunken log2 fold change” value was -0.509.

Regarding RRIRLRPPRLPRPRPRPSRQPRP, the “shrunken log2 fold change” value was -0.189.

RRIRGRPPRLPRPRPRPECEPRP: the “shrunken log2 fold change” value was determined as 1.88.

For RRIRMRPPRLPRPRPRPYGDPRP, the “shrunken log2 fold change” value is 0.0122.

Take RRIRLRPPRLPRPRPRPKCYPRP: the “shrunken log2 fold change” value was -0.414.

Consider RRIRLRPPRLPRPRPRPDHEPRP, for which the “shrunken log2 fold change” value came out at 0.0172.

As for RRIRFRPPRLPRPRPRPAMHPRP, the “shrunken log2 fold change” value amounted to 0.234.

For the sequence RRIRNRPPRLPRPRPRPNPWPRP, the “shrunken log2 fold change” value came to 0.107.

For the sequence RRIRYRPPRLPRPRPRPGAMPRP, the “shrunken log2 fold change” value came out at 0.986.

Take RRIRDRPPRLPRPRPRPAEPPRP: the “shrunken log2 fold change” value is 0.288.

For the sequence RRIRPRPPRLPRPRPRPHDMPRP, the “shrunken log2 fold change” value is -1.48.

With RRIRERPPRLPRPRPRPPRDPRP, the “shrunken log2 fold change” value worked out at 0.226.

Turning to RRIRMRPPRLPRPRPRPWKHPRP, the “shrunken log2 fold change” value is -0.109.

Regarding RRIRPRPPRLPRPRPRPIEHPRP, the “shrunken log2 fold change” value is -0.186.

As for RRIRPRPPRLPRPRPRPITMPRP, the “shrunken log2 fold change” value is -0.238.

Turning to RRIRNRPPRLPRPRPRPQRWPRP, the “shrunken log2 fold change” value came out at 0.176.

As to RRIRYRPPRLPRPRPRPYPRPRP, the “shrunken log2 fold change” value was -0.097.

On to RRIRGRPPRLPRPRPRPMHLPRP, for which the “shrunken log2 fold change” value came out at 0.186.

In the case of RRIRWRPPRLPRPRPRPRDCPRP, the “shrunken log2 fold change” value was determined as 0.226.

Take RRIRDRPPRLPRPRPRPVNFPRP: the “shrunken log2 fold change” value was 0.0142.

In the case of RRIRFRPPRLPRPRPRPNCRPRP, the “shrunken log2 fold change” value was found to be 0.0638.

With RRIRDRPPRLPRPRPRPFDTPRP, the “shrunken log2 fold change” value was -0.329.

Turning to RRIRIRPPRLPRPRPRPSTLPRP, the “shrunken log2 fold change” value is -0.726.

For RRIRTRPPRLPRPRPRPIINPRP, the “shrunken log2 fold change” value is -0.0706.

As to RRIRDRPPRLPRPRPRPPMQPRP, the “shrunken log2 fold change” value is 0.172.

RRIRGRPPRLPRPRPRPRPLPRP: the “shrunken log2 fold change” value stood at 0.902.

As to RRIRLRPPRLPRPRPRPWKVPRP, the “shrunken log2 fold change” value turned out to be 0.0854.

For the sequence RRIRERPPRLPRPRPRPYPLPRP, the “shrunken log2 fold change” value was -0.192.

Consider RRIRYRPPRLPRPRPRPEVAPRP, for which the “shrunken log2 fold change” value is -0.0541.

For RRIRIRPPRLPRPRPRPPNAPRP, the “shrunken log2 fold change” value was -0.0573.

For RRIRFRPPRLPRPRPRPSKRPRP, the “shrunken log2 fold change” value is -0.565.

As for RRIRPRPPRLPRPRPRPQKCPRP, the “shrunken log2 fold change” value was -0.0778.

With RRIRARPPRLPRPRPRPVVFPRP, the “shrunken log2 fold change” value was found to be 0.213.

Regarding RRIRVRPPRLPRPRPRPYIKPRP, the “shrunken log2 fold change” value is -0.982.

In the case of RRIRHRPPRLPRPRPRPWCYPRP, the “shrunken log2 fold change” value was -0.297.

As for RRIRFRPPRLPRPRPRPAITPRP, the “shrunken log2 fold change” value was -0.136.

Turning to RRIRMRPPRLPRPRPRPWLMPRP, the “shrunken log2 fold change” value was determined as 0.0599.

As to RRIRVRPPRLPRPRPRPHMLPRP, the “shrunken log2 fold change” value was -0.311.

In the case of RRIRKRPPRLPRPRPRPNPRPRP, the “shrunken log2 fold change” value came out at 0.228.

For RRIRFRPPRLPRPRPRPRVIPRP, the “shrunken log2 fold change” value is -0.0914.

As for RRIRMRPPRLPRPRPRPDGTPRP, the “shrunken log2 fold change” value amounted to 2.88.

As to RRIRNRPPRLPRPRPRPNFLPRP, the “shrunken log2 fold change” value is -0.0488.

Take RRIRERPPRLPRPRPRPLPYPRP: the “shrunken log2 fold change” value is -0.345.

As to RRIRNRPPRLPRPRPRPANWPRP, the “shrunken log2 fold change” value is 0.182.

With RRIRTRPPRLPRPRPRPAGVPRP, the “shrunken log2 fold change” value was 0.107.

As to RRIRTRPPRLPRPRPRPEPIPRP, the “shrunken log2 fold change” value was 0.226.

On to RRIRQRPPRLPRPRPRPAPLPRP, for which the “shrunken log2 fold change” value was 0.451.

For the sequence RRIRWRPPRLPRPRPRPNMRPRP, the “shrunken log2 fold change” value was 0.0208.

For the sequence RRIRVRPPRLPRPRPRPMKDPRP, the “shrunken log2 fold change” value was -0.109.

For RRIRMRPPRLPRPRPRPEEMPRP, the “shrunken log2 fold change” value turned out to be 3.07.

Turning to RRIRTRPPRLPRPRPRPRHSPRP, the “shrunken log2 fold change” value was -0.106.

In the case of RRIRQRPPRLPRPRPRPVRIPRP, the “shrunken log2 fold change” value is -0.0391.

For RRIRSRPPRLPRPRPRPVNHPRP, the “shrunken log2 fold change” value was -0.462.

On to RRIRMRPPRLPRPRPRPHQMPRP, for which the “shrunken log2 fold change” value was 0.126.

As to RRIRFRPPRLPRPRPRPMFFPRP, the “shrunken log2 fold change” value is -0.549.

For RRIRNRPPRLPRPRPRPYCTPRP, the “shrunken log2 fold change” value is -0.169.

In the case of RRIRKRPPRLPRPRPRPSLGPRP, the “shrunken log2 fold change” value was 0.343.

Turning to RRIRYRPPRLPRPRPRPGPTPRP, the “shrunken log2 fold change” value was -0.0479.

Regarding RRIRIRPPRLPRPRPRPKKIPRP, the “shrunken log2 fold change” value is -0.526.

In the case of RRIRNRPPRLPRPRPRPEYLPRP, the “shrunken log2 fold change” value worked out at 0.0183.

As for RRIRQRPPRLPRPRPRPCSRPRP, the “shrunken log2 fold change” value came to 0.0758.

For RRIRTRPPRLPRPRPRPGWAPRP, the “shrunken log2 fold change” value amounted to 0.622.

Take RRIRQRPPRLPRPRPRPELIPRP: the “shrunken log2 fold change” value is -0.017.

Regarding RRIRIRPPRLPRPRPRPGRGPRP, the “shrunken log2 fold change” value was 0.268.

In the case of RRIRNRPPRLPRPRPRPHLVPRP, the “shrunken log2 fold change” value was -0.0893.

For the sequence RRIRERPPRLPRPRPRPEQVPRP, the “shrunken log2 fold change” value was -0.0135.

For the sequence RRIRRRPPRLPRPRPRPAIAPRP, the “shrunken log2 fold change” value amounted to 0.468.

On to RRIRSRPPRLPRPRPRPNLTPRP, for which the “shrunken log2 fold change” value is -0.15.

Turning to RRIRLRPPRLPRPRPRPWDIPRP, the “shrunken log2 fold change” value was -0.0445.

With RRIRFRPPRLPRPRPRPYWTPRP, the “shrunken log2 fold change” value was -0.651.

Turning to RRIRIRPPRLPRPRPRPLNNPRP, the “shrunken log2 fold change” value was -1.15.

Take RRIRTRPPRLPRPRPRPDQQPRP: the “shrunken log2 fold change” value was -0.0173.

Take RRIRDRPPRLPRPRPRPVWSPRP: the “shrunken log2 fold change” value amounted to 0.065.

With RRIRYRPPRLPRPRPRPGNDPRP, the “shrunken log2 fold change” value is -0.356.

RRIRGRPPRLPRPRPRPSRNPRP: the “shrunken log2 fold change” value worked out at 0.0365.

On to RRIRIRPPRLPRPRPRPMTLPRP, for which the “shrunken log2 fold change” value is 0.0505.

RRIRWRPPRLPRPRPRPEACPRP: the “shrunken log2 fold change” value turned out to be 1.5.

Regarding RRIRRRPPRLPRPRPRPPTGPRP, the “shrunken log2 fold change” value worked out at 0.625.

As for RRIRARPPRLPRPRPRPHIQPRP, the “shrunken log2 fold change” value was -0.164.

As for RRIRTRPPRLPRPRPRPRGYPRP, the “shrunken log2 fold change” value came out at 0.205.

As to RRIRKRPPRLPRPRPRPGWKPRP, the “shrunken log2 fold change” value stood at 0.0274.

With RRIRFRPPRLPRPRPRPTLPPRP, the “shrunken log2 fold change” value came to 0.23.

As to RRIRHRPPRLPRPRPRPFKSPRP, the “shrunken log2 fold change” value amounted to 0.00748.

With RRIRIRPPRLPRPRPRPEGAPRP, the “shrunken log2 fold change” value turned out to be 0.27.

For RRIRNRPPRLPRPRPRPKCPPRP, the “shrunken log2 fold change” value is -0.124.

For RRIRCRPPRLPRPRPRPNMYPRP, the “shrunken log2 fold change” value was -0.916.

With RRIRTRPPRLPRPRPRPYNMPRP, the “shrunken log2 fold change” value was -0.568.

Consider RRIRYRPPRLPRPRPRPTSDPRP, for which the “shrunken log2 fold change” value was -0.459.

Turning to RRIRGRPPRLPRPRPRPTEMPRP, the “shrunken log2 fold change” value was 0.814.

Turning to RRIRQRPPRLPRPRPRPVYRPRP, the “shrunken log2 fold change” value was -0.308.

On to RRIRDRPPRLPRPRPRPPSIPRP, for which the “shrunken log2 fold change” value was -0.0216.

Consider RRIRDRPPRLPRPRPRPRPLPRP, for which the “shrunken log2 fold change” value turned out to be 0.39.

Turning to RRIRNRPPRLPRPRPRPLITPRP, the “shrunken log2 fold change” value is -0.173.

Turning to RRIRLRPPRLPRPRPRPSQIPRP, the “shrunken log2 fold change” value amounted to 0.0199.

For RRIRQRPPRLPRPRPRPVPNPRP, the “shrunken log2 fold change” value amounted to 0.154.

As to RRIRPRPPRLPRPRPRPWVIPRP, the “shrunken log2 fold change” value is 0.0892.

On to RRIRKRPPRLPRPRPRPMISPRP, for which the “shrunken log2 fold change” value is 0.18.

RRIRGRPPRLPRPRPRPVVIPRP: the “shrunken log2 fold change” value was -0.253.

As to RRIRIRPPRLPRPRPRPPGDPRP, the “shrunken log2 fold change” value is -0.0965.

As for RRIRVRPPRLPRPRPRPQRFPRP, the “shrunken log2 fold change” value was -0.163.

On to RRIRNRPPRLPRPRPRPDNPPRP, for which the “shrunken log2 fold change” value is -0.168.

Take RRIRYRPPRLPRPRPRPSPIPRP: the “shrunken log2 fold change” value was -1.06.

Consider RRIRLRPPRLPRPRPRPFPTPRP, for which the “shrunken log2 fold change” value was -0.158.

With RRIRLRPPRLPRPRPRPQCCPRP, the “shrunken log2 fold change” value amounted to 0.0421.

As for RRIRDRPPRLPRPRPRPMVYPRP, the “shrunken log2 fold change” value is 0.225.

Turning to RRIRERPPRLPRPRPRPLNCPRP, the “shrunken log2 fold change” value is -1.25.

RRIRIRPPRLPRPRPRPYDQPRP: the “shrunken log2 fold change” value was -0.295.

For RRIRYRPPRLPRPRPRPRRQPRP, the “shrunken log2 fold change” value is -0.232.

In the case of RRIRIRPPRLPRPRPRPHHIPRP, the “shrunken log2 fold change” value is -0.641.

In the case of RRIRRRPPRLPRPRPRPVVMPRP, the “shrunken log2 fold change” value was -0.0785.

For the sequence RRIRTRPPRLPRPRPRPRNPPRP, the “shrunken log2 fold change” value was 0.000872.

In the case of RRIRVRPPRLPRPRPRPIWEPRP, the “shrunken log2 fold change” value is -0.00136.

Consider RRIRARPPRLPRPRPRPVGWPRP, for which the “shrunken log2 fold change” value was determined as 1.02.

Turning to RRIRSRPPRLPRPRPRPDHCPRP, the “shrunken log2 fold change” value is -0.0225.

For RRIRYRPPRLPRPRPRPIGGPRP, the “shrunken log2 fold change” value is -0.4.

Regarding RRIRVRPPRLPRPRPRPRSEPRP, the “shrunken log2 fold change” value was -0.14.

As to RRIRWRPPRLPRPRPRPLFGPRP, the “shrunken log2 fold change” value was 0.352.

For RRIRCRPPRLPRPRPRPNERPRP, the “shrunken log2 fold change” value was 0.0333.
